The record followed here is PMC5538626 (2017).

First the molecules themselves.
B1: PLEKHM1‐LIR WT peptide (EDEWVNVQY), biotinylated [modified: biotin; biotin] [not stated] / 6xHis‐tagged LC3B [human] (parent complex)
chain 1: EDEWVNVQY
chain 2: not shown
B2: PLEKHM1‐LIR WT peptide (EDEWVNVQY), biotinylated [modified: biotin; biotin] [not stated] / 6xHis‐tagged LC3C [human] (parent complex)
chain 1: EDEWVNVQY
chain 2: MPPPQKIPSVRPFKQRKSLAIRQEEVAGIRAKFPNKIPVVVERYPRETFLPPLDKTKFLVPQELTMTQFLSIIRSRMVLRATEAFYLLVNNKSLVSMSATMAEIYRDYKDEDGFVYMTYASQETFG
B3: PLEKHM1‐LIR WT peptide (EDEWVNVQY), biotinylated [modified: biotin; biotin] [not stated] / 6xHis‐tagged GABARAP‐L1 [human] (parent complex)
chain 1: EDEWVNVQY
chain 2: not shown

The first assay covers variants of B1. Nature of the assay: peptide array (biotinylated LIR peptide, 6xHis-mATG8, absorbance); n = 3; read off a plot.
In the case of chain 1 W4F, the percent of parent was approximately 8 % Mutant LIR/WT.
Regarding chain 1 W4Y, the percent of parent is approximately 10 % Mutant LIR/WT.
chain 1 V7L: the percent of parent is approximately 250 % Mutant LIR/WT.
Consider chain 1 V7I, for which the percent of parent was approximately 200 % Mutant LIR/WT.
Regarding chain 1 W4A, chain 1 V7A, the percent of parent was approximately 8 % Mutant LIR/WT.

The variants in another assay derive from B1. Nature of the assay: peptide array (biotinylated LIR peptide, 6xHis-mATG8, absorbance); n = 5; read off a plot.
On to chain 1 V5C, chain 1 N6I, chain 1 V7L, for which the ratio to parent was approximately 2.4.
With chain 1 V5C, chain 1 N6V, chain 1 V7L, the ratio to parent was approximately 2.3.
Regarding chain 1 W4A, chain 1 V7A, the ratio to parent was approximately 0.17.
Consider chain 1 V5C, chain 1 N6F, chain 1 V7L, for which the ratio to parent is approximately 1.9.

The next assay covers variants of B2. Nature of the assay: peptide array (biotinylated LIR peptide, 6xHis-mATG8, absorbance); n = 3; read off a plot.
With chain 1 EDEAVNAQY [chain 1 W4A, chain 1 V7A], the percent of parent was approximately 5 % Mutant LIR/WT.
For the variant chain 1 EDEFVNVQY [chain 1 W4F], the percent of parent was approximately 50 % Mutant LIR/WT.
Same read-out and setting: in the case of chain 1 EDEYVNVQY [chain 1 W4Y] it was approximately 25 % Mutant LIR/WT; in that of chain 1 EDEWVNIQY [chain 1 V7I], approximately 110 % Mutant LIR/WT.
For the variant chain 1 EDEWVNLQY [chain 1 V7L], the percent of parent is approximately 85 % Mutant LIR/WT.

The variants in a further assay derive from B2. Put plainly: peptide array ELISA (biotinylated peptide on streptavidin plate, 6xHis-mATG8, anti-His-HRP, TMB); absorbance at 450 nm; n = 4; read off a plot. A general note: In an ELISA, binding on a coated surface is turned into a signal by an enzyme label.
Regarding chain 1 EDEWANVQY [chain 1 V5A], the screen value is approximately 1.5 fold over mutLIR.
On the same count and under the same terms, in the case of chain 1 EDEWVAVQY [chain 1 N6A] it was approximately 1.7 fold over mutLIR; in that of chain 1 EDEWVNAQY [chain 1 V7A], approximately 1.4 fold over mutLIR; in that of chain 1 EDEWAAVQY [chain 1 V5A, chain 1 N6A], approximately 1.2 fold over mutLIR.

The variants in a further assay derive from B3. Put plainly: peptide array (biotinylated LIR peptide, 6xHis-mATG8, absorbance); n = 3; read off a plot.
Take chain 1 W4A, chain 1 V7A: the percent of parent is approximately 7 % Mutant LIR/WT.
Still for that read-out and setting: in the case of chain 1 V7L it was approximately 110 % Mutant LIR/WT; in that of chain 1 V7I, approximately 95 % Mutant LIR/WT; in that of chain 1 W4F, approximately 60 % Mutant LIR/WT.
For the variant chain 1 W4Y, the percent of parent is approximately 55 % Mutant LIR/WT.

Variants of B3 are the subject of a further assay. Nature of the assay: peptide array ELISA (biotinylated peptide on streptavidin plate, 6xHis-mATG8, anti-His-HRP, TMB); absorbance at 450 nm; n = 4; read off a plot.
Regarding chain 1 V5A, the screen value is approximately 1.7 fold over mutLIR.
With chain 1 N6A, the screen value was approximately 9.9 fold over mutLIR.
In the case of chain 1 V7A, the screen value was approximately 2 fold over mutLIR.
chain 1 V5A, chain 1 N6A: the screen value was approximately 1.3 fold over mutLIR.
